Measurements: publication PMC4701444 (PLoS ONE, 2016)

Experiments:
PfAMA1 [1] = details: Room temp; ref [23]; read-out: SPR Kd; cited from earlier work
Excerpt: Table 2 Comparison of equilibrium dissociation constants (Kd) of complexes. | column: SPRKd (nM) / Room temp

ΔDII-PfAMA1 = test: Isothermal Titration Calorimetry, ΔDII-PfAMA1; format: binding, Plasmodium falciparum; details: 25°C; ΔDII-PfAMA1 10 μM, PfRON2D3-TRX 110 μM; 20 mM Hepes pH 7.5, 150 mM NaCl; average of two experiments with standard deviation; read-out: ITC Kd
Description: (§1) Purified PfAMA1, ΔDII-PfAMA1, and PfRON2D3-TRX were dialyzed against ITC buffer (20 mM Hepes pH 7.5, 150 mM NaCl) at 4°C. All ITC experiments were carried out at 25°C on a MicroCal iTC200 instrument. The sample cell contained PfAMA1 or ΔDII-PfAMA1 (10 μM), and PfRON2D3-TRX (110 μM) was added in 17 injections of 2.2 μL each. […] Data were processed using Origin software (MicroCal) and the dissociation constants (Kd) were determined using a one binding site model.

PfAMA1 [2] = target: T1, PfAMA1 (Plasmodium falciparum, UniProt Q7KQK5); test: Isothermal Titration Calorimetry, PfAMA1; format: binding; details: ITC, 25°C; which AMA1 construct not stated
T1 construct: (residues 104–438); hexa-histidine (cleaved yes); made in house; host or cells: insect cells (modified pAcGP67B vector)
T1 sequence (Q7KQK5 104-438): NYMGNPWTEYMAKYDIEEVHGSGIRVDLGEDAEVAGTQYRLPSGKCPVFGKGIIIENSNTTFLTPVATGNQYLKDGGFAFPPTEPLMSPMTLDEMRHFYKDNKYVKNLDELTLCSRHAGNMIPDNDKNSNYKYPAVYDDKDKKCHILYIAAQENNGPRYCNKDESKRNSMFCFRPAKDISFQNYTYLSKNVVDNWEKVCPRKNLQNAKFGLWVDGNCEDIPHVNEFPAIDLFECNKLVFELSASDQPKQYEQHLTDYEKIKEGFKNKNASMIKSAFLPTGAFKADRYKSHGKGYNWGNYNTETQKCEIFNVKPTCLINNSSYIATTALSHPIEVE
Description: as §1

[3] = target: T2, F*PfRON2sp1 (39 aa) [2021-2059], fluorescein-labeled PfRON2sp1 peptide (Plasmodium falciparum, 5-FAM (5-carboxyfluorescein) on the N-terminus; disulfide cyclized at the two cysteine residues); test: fluorescence polarisation; anisotropy kinetics at 20°C; association: 10 nM labeled probe with 50, 100, 200 nM protein; dissociation: 10 nM preformed complex challenged with 2500 or 5000 nM unlabeled PfRON2sp1; global fit to a one-intermediate model; PBS pH 7.4, at least 0.1% BSA; details: both partners purified
T2 construct: Rhoptry Neck Protein 2 (RON2) of Plasmodium falciparum, residues 2021-2059; also called labeled peptide; labeled probe; source: synthetic peptide, bought: Kinexus (purity ≥ 95%)
T2 peptide: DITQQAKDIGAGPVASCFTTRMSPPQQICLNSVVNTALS

[4] = target: T2, F*PfRON2sp1 (39 aa) [2021-2059], …; test: fluorescence polarisation; anisotropy kinetics at 30°C; association: 10 nM labeled probe with 50, 100, 200 nM protein; dissociation: 10 nM preformed complex challenged with 2500 or 5000 nM unlabeled PfRON2sp1; global fit to a one-intermediate model; PBS pH 7.4, at least 0.1% BSA; details: both partners purified
[5] = target: T2, F*PfRON2sp1 (39 aa) [2021-2059], …; test: fluorescence polarisation; anisotropy kinetics at 25°C; association: 10 nM labeled probe with 50, 100, 200 nM protein; dissociation: 10 nM preformed complex challenged with 2500 or 5000 nM unlabeled PfRON2sp1; global fit to a one-intermediate model; PBS pH 7.4, at least 0.1% BSA; details: both partners purified
[6] = target: T2, F*PfRON2sp1 (39 aa) [2021-2059], …; test: as above; details: both partners purified
[7] = target: T2, F*PfRON2sp1 (39 aa) [2021-2059], …; test: as above; details: both partners purified

Molecule: PfRON2D3: thioredoxin fusion of PfRON2D3 (Asp2021 to Ser2059) produced in E. coli BL21 cells
- Kd (PfAMA1 [1]): 20.3 ± 6.3 nM
- Kd (ΔDII-PfAMA1): 92.6 ± 6.4 nM

Molecule: TRX: thioredoxin, injected as a negative control in ITC
- binding of TRX negative control (PfAMA1 [2]): no detectable binding

B1: PfAMA1 (DI-DII of Plasmodium falciparum Apical Membrane Antigen 1, 3D7, residues 104-438) (domain or fragment)
chain: T1 sequence (Q7KQK5 104-438)
notes: codon-optimized synthetic gene; also called native PfAMA1; PfAMA1 DI-DII construct
- complex half-life (calculated from the one-intermediate model) [3]: 28.8 min
- complex half-life (experimental) [3]: 27.3 min
- complex half-life (calculated from the one-intermediate model) [4]: 9.07 min
- complex half-life (experimental) [4]: 9.23 min
- dH of step 1 (formation of the intermediate) [5]: -0.67 kcal/mol
- dH (overall, summation of the transition states from the kinetic fit) [6]: -11.6 kcal/mol
- complex half-life (calculated from the one-intermediate model) [7]: 16 min
- complex half-life (experimental) [7]: 15 min
